Test: yeast display, Sf9 membrane polyspecificity reagent, FACS + sequencing; frameworks hold sequencing errors
In short: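 A nanobody's polyreactivity label depends on the gate it was sorted from. Yeast display cells were stained with 10% biotinylated, detergent-solubilized Sf9 membrane reagent for 1 hour at 4 °C, enriched on streptavidin microbeads and sorted by FACS. The low and high (top ~1%) gates were set on anti-HA fluorescence for expression and streptavidin fluorescence for reagent binding.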

Sequence | polyreactivity (PSR sort gate)
QVQLVESGGGLVQAGGSLRLSCAASGSIFNIYAMGWYRQAPGKERELVATITGIADSTYYADSVKGRFTISRDNAKNTVYLQMNSLKPEDTAVYFCAAKYGSRYTTGQTRRDYYSWGQGTQVTVSS | low polyreactivity
QVQLVESGGGLVQAGGSLRLSSDASGSIFHTYAMGWYRQAPGKERELVAAITVSGGDTYYADSVKGRFTISRDNAKNTVYLQKISLKAEDTAVYYCAVDTTTSYTVEYDYWGQGTQVTVSS | low polyreactivity
QVQLVESGGGLVQAGGSLRLSCAASGSIFTRYAMAGYRQAPGKERELVAAISWIGTRTYYADSVKGRFTISRDNAKNTVYLPMNSLKPEETAVYYCNAVSKVERYSYPHGRPFEYWGQGTQVTVSS | high polyreactivity
QVQLVESGGGLVQAGGSLRLSCAASGSTFGTNVMGWYRQAPGKERELVAAISNGGSTNYADSVKGRFTISRDNAKNTVYLQMNSLKPEDTAVYYCEYDYWGQGTQVTVSS | low polyreactivity
QVQLVESGGGLVQAGGSLRLSCAASGRTIAQYAMGWSRQAPGKERELVAAISSSGGSTYYADSVKGRFTISRDNAKNTVYLQMNSLKPEDTAVYYCAKYGTKAKQYDYWGQGTQVTVSS | high polyreactivity
QVQLVESGGGLVQAGGSLRLSSAASGSIFPANALGWYRQAPGKERELVAASTANGGSTYYADSVKGRFTISRDNAKNTVYLQMNSLKPEDTAVYYCNAYFVSGHAGGYDYWGQGTQETVSS | high polyreactivity
KVQLVESGGGLVHAGGILRLISAASGSIFTYYYMGWYRQAPGKERELVAAISWNGGTTYYADSVKGRFTISRDNAKNTVYLQMNSLKPEDTAVYYCNKDGSYRYDYWGQGTQVTVSS | low polyreactivity
QVQLVESGGGLVQAGGSLRLSCAASGFTFSVNAMGRYRQAPGKERELVAAISSRGSITYYADSVKGRFTISRDNAKNTVYLQMNSLKPEDPAVYYCNAYKYKSPGDYWGQGTQVTVSS | high polyreactivity
QVQLVESGGGLVQAGGSLRLSCAASGITFAEYAMGWYRQAPGKERELVAAINGGGGSTYYADSVKGRFTISRDNAKNTVYLQMNSLKPEDTAVYYCAARYRGWSGGYDYWGQGTQVTVSS | high polyreactivity
QVQLVESGGGLVQAGGSLRLSCAASGRTFVKYAMGWYRQAPGKERELVAAISWSGGSTYYADSVKGRFTISRDNAKNTVYLQMNSLKPEDTAVYYCNTAQRYRVYRYDYWGQGTQVTVSS | high polyreactivity
QVQLVESGGGLVQAVGSLLLSCAASGSIFRVYAMGWSRQAPGKERELVAAISVSGSSTYYADSVKGRFTISRDNAKNTVYFQMNCLIPEDTAVYYCATKQRRGYWGYITAYARYYWGQGTQVTVSS | high polyreactivity
QVQLVESGGGLVQAGGSLRLSCAASGSTFADYAMGWYRQAPGKERELVAAITSSGGSTYYADSVKGRFTISRDNAKYTVYLQMKSLKAAETAGYYCNARVPRLLFVRFYGMDYWGQGNQVTVSS | low polyreactivity
QVQLVESGGGLVQAGASLRLSCAASGSTFPYYAMGWYRQAPGKERELVAAISGSGGTTYYADSVKGRFTISRDNAKNTVYLQMNSLKPEDTEVYYCAVDIGVGYGYYYWGQGTQVTVSS | low polyreactivity
QVQLVESGGGLVQAGGSLRLSCAASGRTFYPNAMGWYRQAPRKERELVADITYSGASTYYADSVKGRFTISRDNAKNSVFLQMNSLKPEDTAVYYCNADESGVLVYVPYDYLGQGTQVTVSS | low polyreactivity
QVQLVDSGGGLVQAGGSLRLSCAASGFIFSSYAMGWYRQAPGKERELVAAITRSGGRTYYADSVKGRFTISRDNAKNTVYLQMNSLKQEDTAVYYCAAPNGAGYRGDYWGQGTQVTVSS | high polyreactivity
QVQLVESGGGLVQAGGSLRLSCADSGSIFDFNAMGWYRQAPGKERELVAAITWSGGSTYYADSVKGRFTLSRDNAKNTVYLQMNSLKPEDTAVYYCAADSLYDDFYYWGQGTQVTVSS | low polyreactivity

Sequence | polyreactivity (PSR sort gate)
QVQLVESGGGLVQAGGSLRLSCAASGRIFYHYPMGWYRQAPGKEREFVAAISLRAGSTYYADSVKGRFTISRYNAKNNVYLQMNSLKPEDTAFYYCAARRASYVTSRYDYWGQGTQVTVSS | high polyreactivity
QVQVVESGGALVQEGGSLRISCAASGSIFAIYVLGWSRQAPGKERELVAAITGSGGSTYYADSVKGRFTISRDNAKITVYVQMNSQKPEDTAVYYCAARVLRVRTLTTTWGQGTQVTVSS | high polyreactivity
QVQLVESGGGLVQAGGSLRLICAASGRIFGPYAMGWYRQAPGKERELVASISYSGGSTYYADSVKGRFTISRDNAKNTVYLQMNSLKPDDTAVYYCAKGGYWRGYNYWGQGTQVTVSS | low polyreactivity
QGQLVESGGALFQAGGSLSLSCAASGRNFKRYAMGRYRQAPGKERELVAAIRTSDGLTYYADSVKGRFTISRDNAENTDYLQMNSLKPEETSVYYCADGYPYYHVYGYGYWGQGTQVTVSS | low polyreactivity
QVQLVESGGGLVKAGGSLRLSCAASGIPFTFNAMGWYRQAPGKERELVAAITWSGGSTFYADSVKARFTISRDNAKITVYLQMNSLKQEDTAVYYCARETELYVRWLDYWGQGTQGTVSS | low polyreactivity
QVQLVESGGGLVQAGGSLRLSCAASGFTFRYYVMGWYRQAPGKERELVAAISTRGGRTYYADSVKGRFTISRDNAKNTVYLQMNSLKPEDTAVYYCAKDAHHSYTWGYGYWGQGTQVTVSS | high polyreactivity
QVQLVESGGGLVQAGGSLRLSCAASGRILRDYDMGWYRQSPGKERELVAAINWSDGSTYYADSVKGRFTISRDNAKNTVYLQMNSLKPEDPAVYYCAASRWRPLERGTTWLHDYWGQGTQVTVSS | low polyreactivity
QVQLVESGGGLVQAGGSLRLSCDSSGSIFYYYAMGWYRQAPGKERELVAAISRRGGSTYYADSVKVRFTISRDNAKNTVYLQMNSLKPVDTAVYYCAADSPRGYDYWGQCTQVTVSS | high polyreactivity
QVQLVESGGGIVQAGGSHRLSCAASGYIFKPNHMGWYRQAPGIDRELVAAISKSRGTTYYADSVKGRFTISRDNAKNTVYLQMNGLKPEDTAVYFCGGVRRYHSYPDGGYWGQGSQVTVSS | high polyreactivity
QVQLVESGGGLVQAGGSLRLSCAASGRTFFFNAMGWYRQAPGKERELVARITWSGGSTYYADSVKGRFTISRDNAKNTVYLQMNSLKPEDTAVYYCNTRRFPYDGIEHDYWGQGTQVTVSS | low polyreactivity
QVQLVESGGGLLQAGGSLRLSCAASGRTFAYNAMAWYRQAPGKERELVAAITDSDGNTYYADSVKGRFTISRDNAKNTVYLLMNSLKPEDTAVYYCAADYIILDHVTRGFVYEYWGQGTQVTVSS | low polyreactivity
QVQLVESGGGLVQAGGSLRLSCAASGSTFIAYAMGWYRQAPGKERELVAAITKSGGRTYYADSVKGRFTISRDNAKNTVYLQMNSLKPEDTAVYYCAKLVPVYSHPYAYDYWGQGTQVTVSS | high polyreactivity
QVQLVESGGGLVQAGGSLRLSCAASGFIFGYYAMGWYRQAPGKERELVAAISRGGITYYADSVKGRFTISRDNAKNTVYLQMNSLKPEDTAVYYCAAPNRYSVPMYYWGQGTQVTVSS | low polyreactivity
QVQLVESGLGLVQAGGSLRLSCASSGSICSTYAMGLYRQAPGKERELVAAITTSGGRTYYADSVKGRFTISRDNAKNSVYLQMNSLKPEDTAVYFCNAVRGGRYGLDYWGQGTQVTVSS | high polyreactivity
QVQLVESGGGLVQAGGSLRLSCAASGSIFAYNAMGRYRPAPGKERELVAAITSDDSTNYADSVKGSFTISRDNAQNTVYLQMNSLKPEDTAVYDCAAYYYYTYIIGYDYCGQGTQVTVSS | low polyreactivity
QVQLVESGGGLVQAGGSLRLSCAASGSTFAIYAMGWYRQAPGKERELVAAINSGGSTNYADSVKGRFTISRDNAKNTVYLQMNSLKPEDTAVYYCNTDAWHETPVSGYSWGQGTQVTVSS | low polyreactivity

From the nanobody polyreactivity screen of Harvey et al. (2022)
